Source: patent publication JP2020075879A (dated 2020)

Biological target: T1, C末端FLAGタグを有する切り捨てられたヒトRNF43 (Ba/F3 E12細胞に発現) (human, UniProt Q68DV7 24-237)
T1 construct: also called E12細胞株; Ba/F3 E12トランスフェクタント
T1 sequence: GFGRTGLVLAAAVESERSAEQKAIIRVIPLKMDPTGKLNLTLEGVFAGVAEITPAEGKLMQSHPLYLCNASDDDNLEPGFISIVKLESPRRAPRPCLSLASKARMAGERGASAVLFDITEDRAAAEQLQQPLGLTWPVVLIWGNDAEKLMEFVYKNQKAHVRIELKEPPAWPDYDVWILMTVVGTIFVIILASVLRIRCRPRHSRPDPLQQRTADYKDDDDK
Experiment: flow cytometry on Ba/F3 E12 cells, antibody at 2.5 microg/ml, PE anti-human IgG detection

binding result: binds
B1: 抗RNF43単一特異性抗体RNN0802 (antibody, human IgG1, kappa, N297A, V domains shown)
VH: QSLEESGGRLVTPGGSLTLTCRVSGFSLSNYDMSWVRQAPGKGLEWIGFITSSGRTYYASWAKGRFTISKTSTMVDLKITSPTTEDTATYFCARDFENDDSAMWGPGTLVTVSS
VL: DVVMTQTPSSVSAAVGGTVTINCQASQSVYDNNLAWYQQKPGQPPKLLIYKASKLASGVPSRFKGSGSGTEFTLTISDLECADAATYYCQSNYYSNTNGLGSFGGGTKVEIKR
notes: also called 単一特異的RNN0802; 単一特異的RNN0802(二価IgG)
